Assay results published in US20040209325.

Molecular target: T1, bovine brain myelin basic protein (MBP, Sigma), P02687
T1 chain: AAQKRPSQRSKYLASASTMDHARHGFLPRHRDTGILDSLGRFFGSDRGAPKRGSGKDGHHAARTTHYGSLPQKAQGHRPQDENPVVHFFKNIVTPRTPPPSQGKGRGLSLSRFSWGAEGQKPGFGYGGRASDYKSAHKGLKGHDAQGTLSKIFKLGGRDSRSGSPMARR

B1: OsMAPK5a, endogenous protein from rice leaf extracts (protein)
chain: MDGAPVAEFRPTMTHGGRYLLYDIFGNKFEVTNKYQPPIMPIGRGAYGIVCSVMNFETREMVAIKKIANAFNNDMDAKRTLREIKLLRHLDHENIIGIRDVIPPPIPQAFNDVYIATELMDTDLHHIIRSNQELSEEHCQYFLYQILRGLKYIHSANVIHRDLKPSNLLLNANCDLKICDFGLARPSSESDMMTEYVVTRWYRAPELLLNSTDYSAADVWSVGCIFMELINRQPLFPGRDHMHQMRLITEVIGTPTDDELGFIRNEDARKYMRHLPQYPRRTFASMFPRVQPAALDLIERMLTFNPLQRITVEEALDHPYLERLHDIADEPICLEPFSFDFEQKALNEDQMKQLIFNEAIEMNPNIRY
- in-gel kinase assay of immunoprecipitated OsMAPK5a: the OsMAPK5a kinase activity was significantly induced by P. grisea infection
